According to patent publication US20150147336A1:

Biological target: IFNα2a (human) (UniProt P01563)
Assay: cell-based or functional assay

HERC5 gene expression (TAQMAN, Average) in whole blood of donor 107 with 100 IU IFNα2a + R347 control Ab; same donor VEH 1.00, IFN alone 41.12 (relative expression (Average)): 55 | HERC5 gene expression (TAQMAN, Average) in whole blood of donor 163 with 100 IU IFNα2a + R347 control Ab; same donor VEH 1.05, IFN alone 75.81 (relative expression (Average)): 95.4 | HERC5 gene expression (TAQMAN, Average) in whole blood of donor 175 with 100 IU IFNα2a + R347 control Ab; same donor VEH 1.19, IFN alone 74.58 (relative expression (Average)): 98.2 | IFN α2a-induced IFIT1 gene expression in whole blood (TAQMAN), sample 107 IFN + R347 (107 IFN 80.21; 107 VEH 1.00) (relative expression (Average)): 86.4 | IFN α2a-induced IFIT1 gene expression in whole blood (TAQMAN), sample 163 IFN + R3437 (163 IFN 51.65; 163 VEH 0.92) (relative expression (Average)): 86.6 | IFN α2a-induced IFIT3 gene expression in whole blood (TAQMAN), sample 107 IFN + R347 (107 IFN 38.43; 107 VEH 1.00) (relative expression (Average)): 42.6 | IFN α2a-induced IFIT3 gene expression in whole blood (TAQMAN), sample 163 IFN + R3437 (163 IFN 25.94; 163 VEH 0.62) (relative expression (Average)): 44.8 | IFN α2a-induced IFIT3 gene expression in whole blood (TAQMAN), sample 175 IFN + R347 (175 IFN 35.02; 175 VEH 1.32) (relative expression (Average)): 29.7 | IFN α2a-induced IL6ST gene expression in whole blood (TAQMAN), sample 107 IFN + R347 (107 IFN 3.54; 107 VEH 1.00) (relative expression (Average)): 8.19 | IFN α2a-induced IL6ST gene expression in whole blood (TAQMAN), sample 163 IFN + R3437 (163 IFN 7.69; 163 VEH 2.50) (relative expression (Average)): 13.2 | IFN α2a-induced IL6ST gene expression in whole blood (TAQMAN), sample 175 IFN + R347 (175 IFN 7.62; 175 VEH 1.37) (relative expression (Average)): 23.9 | IFN α2a-induced IRF7 gene expression in whole blood (TAQMAN), sample 107 IFN + R347 (107 IFN 18.53; 107 VEH 1.00) (relative expression (Average)): 19.5 | IFN α2a-induced IRF7 gene expression in whole blood (TAQMAN), sample 163 IFN + R3437 (163 IFN 17.16; 163 VEH 0.91) (relative expression (Average)): 23.3 | IFN α2a-induced IRF7 gene expression in whole blood (TAQMAN), sample 175 IFN + R347 (175 IFN 24.65; 175 VEH 1.25) (relative expression (Average)): 26.3 | IFN α2a-induced LY6E gene expression in whole blood (TAQMAN), sample 107 IFN + R347 (107 IFN 19.09; 107 VEH 1.00) (relative expression (Average)): 12.5 | IFN α2a-induced LY6E gene expression in whole blood (TAQMAN), sample 163 IFN + R3437 (163 IFN 13.52; 163 VEH 1.02) (relative expression (Average)): 22.6 | IFN α2a-induced LY6E gene expression in whole blood (TAQMAN), sample 175 IFN + R347 (175 IFN 19.32; 175 VEH 1.61) (relative expression (Average)): 15.6 | IFN α2a-induced MARCKS gene expression in whole blood (TAQMAN), sample 107 IFN + R347 (107 FN 3.97; 107 VEH 1.00) (relative expression (Average)): 2.99 | IFN α2a-induced MARCKS gene expression in whole blood (TAQMAN), sample 163 IFN + R3437 (163 IFN 2.59; 163 VEH 0.56) (relative expression (Average)): 4.42 | IFN α2a-induced MARCKS gene expression in whole blood (TAQMAN), sample 175 IFN + R347 (175 IFN 2.59; 175 VEH 0.41) (relative expression (Average)): 3.38 | IFN α2a-induced RAB8B gene expression in whole blood (TAQMAN), sample 107 IFN + R347 (107 IFN 3.45; 107 VEH 1.0) (relative expression (Average)): 3.15 | IFN α2a-induced RAB8B gene expression in whole blood (TAQMAN), sample 163 IFN + R3437 (163 IFN 2.20; 163 VEH 0.70) (relative expression (Average)): 3.71 | IFN α2a-induced RAB8B gene expression in whole blood (TAQMAN), sample 175 IFN + R347 (175 IFN 2.63; 175 VEH 0.64) (relative expression (Average)): 2.51 | OAS1 gene expression (TAQMAN, Average) in whole blood of donor 107 with 100 IU IFNα2a + R347 control Ab; same donor VEH 1.00, IFN alone 15.11 (relative expression (Average)): 17.8 | OAS1 gene expression (TAQMAN, Average) in whole blood of donor 163 with 100 IU IFNα2a + R347 control Ab; same donor VEH 0.77, IFN alone 14.19 (relative expression (Average)): 22.4 | OAS1 gene expression (TAQMAN, Average) in whole blood of donor 175 with 100 IU IFNα2a + R347 control Ab; same donor VEH 1.62, IFN alone 22.09 (relative expression (Average)): 15.2 | OAS3 gene expression (TAQMAN, Average) in whole blood of donor 107 with 100 IU IFNα2a + R347 control Ab; same donor VEH 1.00, IFN alone 49.04 (relative expression (Average)): 76.9 | OAS3 gene expression (TAQMAN, Average) in whole blood of donor 163 with 100 IU IFNα2a + R347 control Ab; same donor VEH 0.49, IFN alone 42.01 (relative expression (Average)): 52.6 | OAS3 gene expression (TAQMAN, Average) in whole blood of donor 175 with 100 IU IFNα2a + R347 control Ab; same donor VEH 1.27, IFN alone 37.87 (relative expression (Average)): 34.9 | RSAD2 gene expression (TAQMAN, Average) in whole blood of donor 107 with 100 IU IFNα2a + R347 control Ab; same donor VEH 1.00, IFN alone 109.64 (relative expression (Average)): 107 | RSAD2 gene expression (TAQMAN, Average) in whole blood of donor 163 with 100 IU IFNα2a + R347 control Ab; same donor VEH 0.56, IFN alone 71.47 (relative expression (Average)): 115 | RSAD2 gene expression (TAQMAN, Average) in whole blood of donor 175 with 100 IU IFNα2a + R347 control Ab; same donor VEH 1.88, IFN alone 126.27 (relative expression (Average)): 91
Substance: R347 (antibody)
